# B1: Cx47, human (natural protein)
# chain: MTNMSWSFLTRLLEEIHNHSTFVGKVWLTVLVVFRIVLTAVGGEAIYSDEQAKFTCNTRQPGCDNVCYDAFAPLSHVRFWVFQIVVISTPSVMYLGYAVHRLARASEQERRRALRRRPGPRRAPRAHLPPPHAGWPEPADLGEEEPMLGLGEEEEEEETGAAEGAGEEAEEAGAEEACTKAVGADGKAAGTPGPTGQHDGRRRIQREGLMRVYVAQLVARAAFEVAFLVGQYLLYGFEVRPFFPCSRQPCPHVVDCFVSRPTEKTVFLLVMYVVSCLCLLLNLCEMAHLGLGSAQDAVRGRRGPPASAPAPAPRPPPCAFPAAAAGLACPPDYSLVVRAAERARAHDQNLANLALQALRDGAAAGDRDRDSSPCVGLPAASRGPPRAGAPASRTGSATSAGTVGEQGRPGTHERPGAKPRAGSEKGSASSRDGKTTVWI
# Target: T1, Cx47, human (human) (UniProt Q5T442)
# T1 sequence: B1 chain
binder,measurement,value
B1,"median junctional conductance (Gj), dual whole-cell patch clamp of DKO HEK293 cell pairs, homotypic; IQR 0.08–7.68; 20 pairs",1.3 nS

# From article PMC13269782
